Assay [1] concerns the target T1, human TIM-3 on CHOK1 stable cell line (CHOK1-hTIM-3) (human, UniProt Q8TDQ0 22-301).
T1 sequence: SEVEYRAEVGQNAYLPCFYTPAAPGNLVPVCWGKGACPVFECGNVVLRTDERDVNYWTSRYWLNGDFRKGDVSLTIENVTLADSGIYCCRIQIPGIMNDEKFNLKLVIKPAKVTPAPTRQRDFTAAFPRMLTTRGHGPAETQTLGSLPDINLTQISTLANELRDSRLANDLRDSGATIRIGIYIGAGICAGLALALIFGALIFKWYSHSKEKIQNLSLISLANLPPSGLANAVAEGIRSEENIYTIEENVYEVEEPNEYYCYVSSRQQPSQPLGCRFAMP
Description: FACS, CHOK1-hTIM-3 cells, 8 nM antibody.

In assay [2] the target is T2, human TIM-3 extracellular domain protein with hFc tag (hTIM-3-hFc) (human, UniProt Q8TDQ0 22-200).
T2 construct: not shown: human IgG Fc fragment (hFc) of the pCpC vector
T2 sequence: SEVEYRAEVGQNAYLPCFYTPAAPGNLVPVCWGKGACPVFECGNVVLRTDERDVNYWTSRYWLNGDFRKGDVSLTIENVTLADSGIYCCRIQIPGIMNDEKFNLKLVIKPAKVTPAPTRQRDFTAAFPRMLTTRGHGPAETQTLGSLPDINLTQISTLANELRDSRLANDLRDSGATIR
Description: ELISA, coated human TIM-3 ECD protein, 0 nM antibody. On the technique in general: An ELISA detects its analyte on a solid surface through an enzyme-linked reagent.

The target in assay [3] is T2, human TIM-3 extracellular domain …. Kind of assay: ELISA, coated human TIM-3 ECD protein, 0.0007 nM antibody.
For assay [4] the target is unchanged. Kind of assay: ELISA, coated human TIM-3 ECD protein, 0.0667 nM antibody.
Assay [5] addresses T3, murine TIM-3 extracellular domain protein with hFc tag (mTIM-3-hFc) (mouse, UniProt Q8VIM0 29-191).
T3 construct: also called mouse TIM-3 extracellular domain protein; not shown: human IgG Fc fragment (hFc) of the pCpC vector
T3 chain: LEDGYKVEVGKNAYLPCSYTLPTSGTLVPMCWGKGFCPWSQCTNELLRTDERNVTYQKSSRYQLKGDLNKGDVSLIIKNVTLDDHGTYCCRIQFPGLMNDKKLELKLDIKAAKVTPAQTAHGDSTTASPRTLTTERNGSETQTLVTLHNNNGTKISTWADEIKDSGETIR
Description: ELISA, coated mouse TIM-3 ECD protein, 0.0007 nM antibody.

For assay [6], the target named is T3, murine TIM-3 extracellular domain …. Kind of assay: ELISA, coated mouse TIM-3 ECD protein, 0.0067 nM antibody.

B1: 215A8F2 fully human TIM-3 antibody (human IgG4, kappa) (antibody, V domains shown)
VH: QVQLQQWGAGLLKPSETLSLTCTVYGGSFSGYYWNWIRQPPGKGLEWLGEINHSGSTNYNPSLKRRVTISVDTSKNQFSLKLSSVTAADTAVYYCARVYYYGPFDFWGQGTLVTVSS
VL: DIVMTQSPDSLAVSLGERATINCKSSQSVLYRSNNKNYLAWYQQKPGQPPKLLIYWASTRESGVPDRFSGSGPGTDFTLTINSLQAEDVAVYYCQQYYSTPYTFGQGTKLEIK
As for B1, the Mean fluorescence intensity in assay [1] amounted to 298. In addition, the OD450 in assay [2] came out at 0.08; in assay [3], 0.1; in assay [4], 1.29; in assay [5], 0.21; in assay [6], 0.22.

B2: 34B6D8 fully human TIM-3 antibody (human IgG4, kappa) (antibody, V domains shown)
VH: EVQLVESGGGLVQPGGSLRLSCAASGFTFSTYWMTWVRQAPGKRLEWVANIKQGGGDKYYVDSVKGRFTISTDNAKNSLYLQMNSLRAEDTAVYYCARGSNWFDPWGQGTLVTVSS
VL: EIVMTQSPATLSMSPGERATLSCRASQSVYDNLAWYQQKPGQAPRLLIYGASTRATGIPARFSGSGSGTEFTLTISSLQSEDFALYYCQQYTHWPITFGQGTRLEIK
For B2, in assay [1], the Mean fluorescence intensity stood at 219. Further, the OD450 in assay [2] came out at 0.09; in assay [3], 0.11; in assay [4], 1.58; in assay [5], 0.24; in assay [6], 0.24.

B3: 57F4E5 fully human TIM-3 antibody (human IgG4, kappa) (antibody, V domains shown)
VH: EVQLVESGGGLVQPGGSLRLSCAASGFTFSSYWMSWVRQAPGKGLEWVANIKQDGSEKYYVDSVKGRFTISRDSAKNSLYLQMNSLRAEDTAMYFCARDSNFFDYWGQGTLVTVSS
VL: ETVMTQSPATLSVSPGERATLSCRASQSVSSNLAWYQRKPGQAPRLLIYFSSTRATGIPARFSGSGSGTEFTLTISSLQSEDFAVYYCQQYNNWPLTFGGGTKVEIK
As to B3, in assay [1], the Mean fluorescence intensity stood at 154. Moreover, the OD450 stood at 0.08 in assay [2]; 0.11 in assay [3]; 1.22 in assay [4]; 0.23 in assay [5]; 0.23 in assay [6].

B4: 39E5H1 fully human TIM-3 antibody (human IgG4, kappa) (antibody, V domains shown)
VH: EVQLVESGGGLVQPGGSLRLSCAASGFTFSSYWMSWVRQAPGKGLEWVANIKRGGSERYYVDSVKGRFTISGDNAKNSVYLQMNSLRAEDTAVYYCARGSNWFDPWGQGTLVTVSS
VL: ETVMTQSPAILSVSPGERATLSCRASQSVYSNLAWYQQKLGQAPRLLIYDASTRATGIPARFSGSGSGTEFTLTISSLQSEDFAVYYCQQYNNWPITFGQGTRLEIK
In turn, B4 gave a Mean fluorescence intensity in assay [1] of 234. Also, the OD450 stood at 0.08 in assay [2]; 0.1 in assay [3]; 1.33 in assay [4]; 0.23 in assay [5]; 0.23 in assay [6].

B5: 134H3G6 fully human TIM-3 antibody (human IgG4, kappa) (antibody, V domains shown)
VH: EVQLVESGGGLVQPGGSLRLSCAASGFTFSNSWMTWVRQAPGKGLEWVANIKQAGTEKYYVDSVKGRFTISRDNAKNSLYLQMNSLRAEDTAVYYCNSGSNYFDYWGQGTLVTVSS
VL: EIVMTQSPATLSVSPGERATLSCRARQNFYSNLAWYQQKPGQAPRLLIYGASTRATGIPARFSGSGSGTEFTLTISSLQSEDFAVYYCQQYNNWPLTFGGGTKVEIK
B5: in assay [1], the Mean fluorescence intensity was 229. Moreover, the OD450 in assay [2] turned out to be 0.08; in assay [3], 0.1; in assay [4], 1.28; in assay [5] it was 0.21; in assay [6], 0.22.

B6: 18D2H2 fully human TIM-3 antibody (human IgG4, kappa) (antibody, V domains shown)
VH: EVQLVESGGDLVQPGGSLRLSCAASGFTFSTYWMTWVRQAPGRGLEWVANIKQDGSAKYYVDSVKGRFTLSRDDAKNSLYLQMNSLRAEDTAVYYCARGSNWFDYWGQGTLVTVSS
VL: ETVMTQSPATLSVSPGERATLSCRANQNVYSNLAWYQQKPGQAPRLLIYDASTRATGFPARFSGSGSGTEFTLTISSLQSEDFAVYYCQQYNNWPLTFGGGTKVEIK
Take B6: in assay [1], the Mean fluorescence intensity was found to be 268. The OD450 in assay [2] is 0.07; in assay [3] it was 0.11; in assay [4] it was 1.57; in assay [5], 0.21; in assay [6], 0.22.

B7: 7A4F10 fully human TIM-3 antibody (human IgG4, kappa) (antibody, V domains shown)
VH: EVQLLESGGGLVQPGGSLRLSCAASGFTFRTHLISWVRQAPGKGLEWVAAITGSGGSTYYADSVKGRFIISRDNSKNTLFLQMNSLRAEDTAVYYCAKDGGSGSYDDFWGQGTLVTVSS
VL: ETVLTQSPVTLSLSPGERATLSCRASQSVGSYLAWYQQKPGQAPRLLIYDASNRATGIPARFSGSGSGTDFTLTISSLEPEDFAVYYCQQRSNWPPTFGQGTKVEIK
B7 showed a Mean fluorescence intensity in assay [1] of 308. In addition, the OD450 was 0.08 in assay [2]; 0.11 in assay [3]; 1.69 in assay [4]; 0.22 in assay [5]; 0.23 in assay [6].

Values taken from US20220033501A1 (SHANGHAI PHARMAEXPLORER, published 2022).
